Test: soluble on expression in E. coli; label from the status in PepcDB or PDB records
For “KDIYASMETARREGKSFNTWKKGLVDEMERKGWVAGRDKKLGRGLDGTLLADPKTGEYFGTPRRLNTIYRVNMQAAYSGARYQRMMDNVDNRPYWKYSAVSDSRTRPAHLALNGRVYRYDAPFWATFYPPNGFNCRCTVI”, the “soluble on expression in E. coli” value was “not soluble”. In the case of “MILLIGATGNIGLPIVKSLQKKGAEVRLLVHNEKSSAKIQALGQMEIFIGDFRNDSDLRESMKGCSSVFHVVPPFTKDEAEIGYRVIENARHAGVEHIVFNSVLHPQLRKMEHHAQKLLVEEAVIESGLAFNIIQPAMLMQNLLMVWRTIRENGIYPVISSPDKKMSLIDSEDIGEAVANILTDPSLRNATFELAGSDLLTYKEMALIISEELNQPVKVVPVDDKGREELARKQGMSSYAIHAFLKMAKHYDEHGFSGSNPLVLTSILKRPPNSYRDFIRRLIAEDGGI”, the “soluble on expression in E. coli” value is reported as “not soluble”. For “MVKQVGNTEIKENHRASCHCGAVVLELYLPNGIEKPRRCDCSICRRKGAIVGSVPLANIKILKGESELKLYQFNTGTAKHYFCSNCGIYTHHQRRSDPTEYGYNIGCLEGVNPYELGAIEVMDGVNHPADRKKILEHHHHHH”, the “soluble on expression in E. coli” value was “not soluble”. For “MHYSQMRWMFFCLTALLHGSFIVNAAKILVYCPSISKSHVLLCSKYADLLHNAGHDTVLFIPSYSKLLDNYDGAKHAKVWRLHNVTEAYDTKLGTLANVMENSHIGFIDRLTFDADFWIDMCADLLGKLPEMQHIIDYKFDLVIYNEIDPCTPAIVRLFNIPKTVLLSSEAIMDKVAWNLGKPMTTFAES”, the “soluble on expression in E. coli” value was “not soluble”. With “MLEDYAISLEEVNFNDFIVVDVRELDEYEELHLPNATLISVNDQEKLADFLSQHKDKKVLLHCRAGRRALDAAKSMHELGYTPYYLEGNVYDFEKYGFRMVYDDTCDKKN” the “soluble on expression in E. coli” value was “soluble”. In the case of “MFKYSKDGVSVLTILDTRRAKINGLFPVKVQVVFRRKQKYYSTGKELSKEDWDRLLKAKSQLLMEVRTDIESSFSIIKQQVSELIQKGEFSFEILSIRLGRHTKEINLRTAFELKMKELEDNEQASTYLNYRSALKSLECFGGTNIPLDRITVEWLKHCERFWISNGKSYSSVSIYFRTLKCILNRAVRDGILKESSFPFGKNKYEIPEGHGRKLALTLPEIKRVMSFQDSTNELEEFRDLWFFSYLCNGINFMDLLFLQYSNIVDGEICFIRSKTSRTTKHSKEIRATITPEMWDIIHKWGNPNISPQTYIFKYAKGNEDAFEKIKLVRRIVTKCNRKLKKIAQGTGIAQLTTYTARHSFATVLKRGGAKTSYISESLGHSNLTVTENYLACFEKEERIRNARLLTNFDNKM”, the “soluble on expression in E. coli” value is reported as “not soluble”. In the case of “MAHHHHHHMGKHIRILKNQYLQFMSKRCIQSKAAFNICGKINVENPIVELDGDEMTRIIWKDIKEKLILPYVNLKIKYFDLSIENRDKTNDQVTIEAAEEIKKTSVGIKCATITPDAARVKEFNLKEMWKSPNGTIRNILDGTVFRTPILIKNIPKLVPNWKKPIVIGRHAYADQYKQKSLKIEKSGKFEIVFTPDDNSQVLRETVFHFKSPGVCLGMYNTEESIRNFALSCFQYALDLKMPVYMSTKSTILKIYDGLFKDIFDEIYEKQFKKSFEQHNLWYEHKLIDDMVAQVLKSEGGFLWACKNYDGDIQSDAVAQGYGSLGLMSSVLLCPDGVTCVSEAAHGTVTRHYRAYQKGEKTSTNPIASIFAWTKGLEHRAKLDKNDNLKQFCYALEKACIETVEDGLMSKDLAGCIKGIKNVTEKDYIFTQDLINAINEKLKLKILQNQSKNDPQATSYKLKNDNWNFYAPQEHST”, the “soluble on expression in E. coli” value is reported as “not soluble”. With “MSDRKPVRGRHQARKRAVALLFEAEVRGISAAEVVDTRAALAEAKPDIARLHPYTAAVARGVSEHAAHIDDLITAHLRGWTLDRLPAVDRAILRVSVWELLHAADVPEPVVVDEAVQLAKELSTDDSPGFVNGVLGQVMLVTPQLRAAAQAVRGGA” the “soluble on expression in E. coli” value was “soluble”. In the case of “MSLDPDAGVIFARTAAGAAVALGLLKCGRIWLCPVCSGQDPARPSEEITEAVVSWLQQGGWAYLVTFTARHTAADRLSDLMDALQGTRADAETGTKRRPGAYQRLITGAAWAGDKRRKSNQEGIRGRIGYIGMIRATEVTVGEGAGWHPHIHAIVLVGGRTEGQRGDKRITGTFTPSEDALTEWEDRWRRSGPATLARSTPGFRPPTGARSPGATAGARATASTSSSSVRSGRQRPGRVHRQDAGRQEPGPGAGTRRPQGRPPGQHDVLRTPSRIGDLMGGVPEEEAAGHGSLAWGLDRWAEYETAVSGAGHRVDPLPAPAPGPDRRRHRGRRHGRPVPDRAARRFRDGVQIWDRAWKGLVGRSLDLAVVEAVEGREISMDALGELVQSAGQSRAFLRVLTPQEVTELYDELLRTLARRREQAAERRAAEAAEAEPTTREGHHHHHH”, the “soluble on expression in E. coli” value is reported as “not soluble”. In the case of “MHLLPELASHHAVSIPELLVSRDERQARQHVWLKRHPVPLVSFTVVAPGPIKDSEVTRRIFNHGVTALRALAAKQGWQIQEQAALVSASGPEGMLSIAAPARDLKLATIELEHSHPLGRLWDIDVLTPEGEILSRRDYSLPPRRCLLCEQSAAVCARGKTHQLTDLLNRMEALLNDVDACNVN”, the “soluble on expression in E. coli” value is reported as “not soluble”. For “GHMIARGKFRSLTLINWNGFFARTFDFDELVTTLSGGNGAGKSTTMAGFVTALIPDLTLLNFRNTTEAGSTSSSRDKGLYGKLKAGVCYAVLETVNSRAQRIITGVRLQQIAGRDKKVDIRPFSLQNVPMTDSVISLFTEQVANKARVLSLNDLKEKFEETAVTFKPYHSITDYHSFMFDLGILPKRLRSSSDRNKFYKLIEASLYGGISSVITKSLRDYLLPENSGVRQAFQDMEAALRENSGGSGGSISAESVANILRKTIQREQNRILQLNQGLQNIAFGQVKGVRLVVNIRDTHSILLNALSDQHEQHKDLFESQKLSFSEALAMLYKRINPHIELGQRMPQTIGEELLDYRNYLDLEVETLRGAYGWMRAESSALSTGEAIGTGMSILLMVVQSWEEESRRMRAKDILPCRLLFLDQAARLDAMSINTLFELCERLDMQLLIAAPENISPERGTTYKLVRKILANQEYVHVVGLKGFG”, the “soluble on expression in E. coli” value was “soluble”. For “MGSDKIHHHHHHMTAFSFLGDKYHDHDLFLETLKYALNCEINDLRPEDFPEIRKLPDLVVIGRWNLLDDETPWLKEGDIKILVDYVRSGGKLFVWHSGLARFPESYNGLVGGRFIHHPPQKKVRYYGKDIEFELVDEHYFVDLYSDVEIFLWSESDDGTSIAGWRRRYHNGKILALTPAHSEGLKDQVFRDFLKKVLNTFVNQTSW”, the “soluble on expression in E. coli” value was “not soluble”. In the case of “AHHHHHHGSKKFPAYLASWEDIENWAKAGAWKVLESGWMPDVIVGLARGGWIAARLYCDYLGVKDLVSIKVEHWGVTATPDGRARLKYGAQYDFEGKKVLIVDDITDTGESMSLAYEYMKSRNPAEIRTATLLNIKGSKFVPDYYAKDIDWVWVVFPWNFVEDMINLTNNLFEEKDKLTTDEIISLFKELHGIEVPREKLEEALRMAEKRKIFKFENGFWTKV”, the “soluble on expression in E. coli” value is reported as “soluble”. In the case of “ELKDSYVDYTLLYDMIANRIGIEEAVVENGALRLMKNQVWAYDFLPHMLIAGGTGGGKTYFLLTIIEALLKSDAELFILDPKNADLADLGTIMTHVYSQKEQISACVEDFYERMMVRSRLMKEMPNYKTGENYAYLGLSPNFLVFDEYVAYMEMLTTKESAVILNKLKQIVMLGRQSGFFLILACQRPDA”, the “soluble on expression in E. coli” value is reported as “not soluble”. In the case of “MKAVINNTNPENTPPTRAIKRLERDVLRMGALVEQSFRLSHQALFARDLTAAEELPRLDKKIDRFYRQIESDCTSIITLQAPTAQDLRCLSAFMQLVRDLERIGDYAKDLAEIAIKIFPYPPHASLPEIALMSNNAQAMLATSLLALADLDEINGRRLKYLDDDVDHAYNQLYHTLAHQKDVPGVIEPILLLTLAIRCLERMADHATNIGQRVAYIVTGQR”, the “soluble on expression in E. coli” value is reported as “not soluble”. With “MLKANVFCAGPVEALILDWAGTTIDFGSLAPVYAFMELFKQEGIEVTQAEAREPMGTEKSEHIRRMLGNSRIANAWLSIKGQASNEEDIKRLYDLFAPIQTRIVAQRSQLIPGWKEVFDKLIAQGIKVGGNTGYGPGMMAPALIAAKEQGYTPASTVFATDVVRGRPFPDMALKVALELEVGHVNGCIKVDDTLPGIEEGLRAGMWTVGVSCSGNEVGLDREDWQALSSDEQQSYRQHAEQRLFNAGAHYVIDSVADLETVITDVNRRLARGEKP” the “soluble on expression in E. coli” value was “soluble”. With “MEMGMKRIANECFFAWVESEIKSGRSVKFRVKGNSMMPLLRNGKDEVVVGPYDKEELKLFDVILFRQTDRYVLHRIIQKRDSRYLMQGDGVCRFYEECEDTDIIGVVRKVCRPSGKKIETDSMCWRLESRLWLGLGGCRGMVLRVLNRLGCCLLF” the “soluble on expression in E. coli” value was “not soluble”. With “MGSDKIHHHHHHMIYIGLPQWSHPKWVRLGITSLEEYARHFNCVEGNTTLYALPKPEVVLRWREQTTDDFRFCFKFPATISHQAALRHCDDLVTEFLTRMSPLAPRIGQYWLQLPATFGPRELPALWHFLDSLPGEFNYGVEVRHPQFFAKGEEEQTLNRGLHQRGVNRVILDSRPVHAARPHSEAIRDAQRKKPKVPVHAVLTATNPLIRFIGSDDMTQNRELFQVWLQKLAQWHQTTTPYLFLHTPDIAQAPELVHTLWEDLRKTLPEIGAVPAIPQQSSLF” the “soluble on expression in E. coli” value was “not soluble”. For “MGSDKIHHHHHHMIRKFVNRKRELEVLEKARLFVVHGRRRVGKTALLRKFLENKRYEKDVEGFSQEISSFINAPVRFESSRDAFKFLREQGKLIVILDEFPYLIEADKGIVSEFQEIVDVMLDNSDVTLILCGSSVGMMEREVPSYKSPLYGRAGGILKVQPFRFFDMVEWFGKDFERLLRIYDVTWGIPKYMEFFRTGSDEEIIANFFDPSAFLFNEARLLLLEELRNPSRYMQIIEAITLWKTRLNEIAQYTGIEPKDLPSYLRVLSNLGIIKREVPITERKGKRWVYVIEDEYFRFYHRFVSPHYEEIESLNPEPAIEDFRKNFNAYLGRTFEKVSREFLTRVIKPSKVGRWWHKGEEIDIVALKGEERKALLVEVKWKELSEKEARRILKDLEHKGELIGMEKWKRCYGLIAKKIENKESIKGEGFFLWDLKDFKSEMI”, the “soluble on expression in E. coli” value was “not soluble”. With “MPVRKAKAVWEGGLRQGKGVMELQSQAFQGPYSYPSRFEEGEGTNPEELIAAAHAGCFSMALAASLEREGFPPKRVSTEARVHLEVVDGKPTLTRIELLTEAEVPGISSEKFLEIAEAAKEGCPVSRALAGVKEVVLTARLV” the “soluble on expression in E. coli” value was “soluble”. With “MIKKLDVVAAIIECDGKILLAQRPAHADQAGLWEFAGGKVEPGETQPQALIRELREELGIDATPGVYIASHQRDVSGRRIHLHAWHVPAFNGLIRALEHQALAWCTPEEALEYPLAPADIPLLQAFIALRDARLTDSC” the “soluble on expression in E. coli” value was “not soluble”. With “MVRVAVIGGSGVYDFPAENKRELTVETPYGKVNLTIGHVAGEEVAFLARHGKGHSVPPHKVNYRANIWALHELGVERIVATSAVGSLNPNMRPGDFVILDQLIDFTVSRPRTFYDGEESPHDRKFVAHVDFTEPYCPEIRRALITAAKDLSLPYHPKGTYVCTEGPRFETAAEIRAYRILGGDVVGMTQCPEAALARELEMCYATVAIVTNYAAGISGKKLTHAEVVELMNKKTREITALITKAIPLIPKERNCPCKDALKGATG” the “soluble on expression in E. coli” value was “soluble”. With “FNGHSLKAYPRMTFQLTIKGGNEMNYRIEEKEAFRIVGIKKRVPIIFKGINPEIASMWESLDEKAINKLKELSNVAPSGLISASTNFSEGRTEENGELDHYIGAATTKRCPDNFSRLEVPASTWAVFESIGPFPDTLQEVWGRIYSEWFPSSNYEQIEGPEILWNEHKDVTSPSFKSEIWIPITKK” the “soluble on expression in E. coli” value was “not soluble”. For “MSRLRIYTESGELIKDITDPKEIAEELQKINVLFERWRANAPLKENASDEEIINAYKHEIDRLINKYGFQSYDVIAMTPEHPKKDELRQKFLKEHTHSDFEVRYFVYGDGVFYLHPNDKVYILHCTAGDLISVPPNTKHWFDMGENPNFKCIRLFTTPEGWVAEYTGSDIAEKFPKYEEVVNGLEHHHHHH”, the “soluble on expression in E. coli” value was “soluble”.
